Reference: the Immune Epitope Database (IEDB)
Blank lines part the entries; values can stand above or below the sequence they belong to.

Assays:
HLA-B*15:01 [1] = experiment: IEDB peptide-MHC binding, purified MHC/competitive/fluorescence; filed as Kd, often an IC50 or EC50 that approximates it; ≥ and ≤ were set here for values at or beyond the usual limits of such assays
HLA-B*35:01 = experiment: as above
HLA-A*30:01 = experiment: as above; settings: source organism: Vibrio cholerae V52
HLA-B*08:01 [2] = experiment: as above; settings: source organism: Vibrio cholerae V52
HLA-A*01:01 = experiment: IEDB peptide-MHC binding, purified MHC/direct/fluorescence; filed as Kd, often an IC50 or EC50 that approximates it; ≥ and ≤ were set here for values at or beyond the usual limits of such assays
HLA-B*18:01 = experiment: as above; settings: source organism: Vibrio cholerae
HLA-A*02:01 [3] = experiment: as above; settings: source organism: Vibrio cholerae
HLA-A*03:01 = experiment: as above; settings: source organism: Vibrio cholerae
HLA-B*46:01 = experiment: as above
HLA-B*40:01 = experiment: as above
HLA-A*26:01 = experiment: as above; settings: source organism: Vibrio cholerae V52
HLA-A*11:01 [4] = experiment: as above; settings: source organism: Vibrio cholerae
HLA-B*15:01 [5] = experiment: as above; settings: source organism: Vibrio cholerae
HLA-B*57:01 [6] = experiment: as above; settings: source organism: Vibrio cholerae
HLA-B*58:01 = experiment: as above
HLA-B*15:17 [7] = experiment: as above; settings: source organism: Vibrio cholerae
HLA-B*27:05 = experiment: as above
HLA-A*69:01 = experiment: as above
HLA-B*51:01 = experiment: as above; settings: source organism: Vibrio cholerae
HLA-A*31:01 = experiment: as above
HLA-B*39:01 = experiment: as above; settings: source organism: Vibrio cholerae V52
HLA-B*38:01 = experiment: as above
HLA-B*48:01 = experiment: as above
HLA-B*07:02 = experiment: as above; settings: source organism: Vibrio cholerae
HLA-A*02:01 [8] = experiment: IEDB peptide-MHC binding, cellular MHC/competitive/fluorescence; ≥ and ≤ were set here for values at or beyond the usual limits of such assays; settings: source organism: Homo sapiens
HLA-C*14:02 = experiment: IEDB peptide-MHC binding, purified MHC/competitive/fluorescence; filed as Kd, often an IC50 or EC50 that approximates it; ≥ and ≤ were set here for values at or beyond the usual limits of such assays; settings: source organism: Gorilla gorilla
HLA-B*83:01 = experiment: as above; settings: source organism: Gorilla gorilla
HLA-B*15:42 = experiment: as above; settings: source organism: Gorilla gorilla
HLA-B*45:06 = experiment: as above; settings: source organism: Gorilla gorilla
HLA-C*12:03 = experiment: IEDB peptide-MHC binding, purified MHC/direct/fluorescence; filed as Kd, often an IC50 or EC50 that approximates it; ≥ and ≤ were set here for values at or beyond the usual limits of such assays
HLA-A*02:01 [9] = experiment: IEDB peptide-MHC binding, purified MHC/competitive/fluorescence; filed as Kd, often an IC50 or EC50 that approximates it; ≥ and ≤ were set here for values at or beyond the usual limits of such assays; settings: source organism: Vibrio vulnificus CMCP6
HLA-A*02:03 = experiment: as above; settings: source organism: Vibrio vulnificus CMCP6
HLA-A*11:01 [10] = experiment: as above; settings: source organism: Vibrio vulnificus CMCP6
HLA-B*57:01 [11] = experiment: as above; settings: source organism: Vibrio vulnificus CMCP6
HLA-B*15:17 [12] = experiment: as above; settings: source organism: Vibrio vulnificus CMCP6
HLA-A*02:06 = experiment: as above; settings: source organism: Vibrio vulnificus CMCP6
HLA-B*15:09 = experiment: IEDB peptide-MHC binding, purified MHC/direct/fluorescence; filed as Kd, often an IC50 or EC50 that approximates it; ≥ and ≤ were set here for values at or beyond the usual limits of such assays; settings: source organism: Vibrio vulnificus CMCP6
HLA-A*26:02 = experiment: as above; settings: source organism: Vibrio vulnificus CMCP6
HLA-B*08:02 = experiment: as above; settings: source organism: Vibrio vulnificus CMCP6
HLA-B*08:01 [13] = experiment: as above; settings: source organism: Vibrio vulnificus CMCP6
HLA-A*26:03 = experiment: as above; settings: source organism: Vibrio vulnificus CMCP6
[14] = source organism: Desulfitobacterium hafniense DCB-2
[15] = source organism: Vibrio cholerae
[16] = source organism: Vibrio vulnificus CMCP6
[17] = source organism: Vibrio vulnificus
[18] = source organism: Bacillus anthracis str. A0488

Kd (HLA-B*15:01 [1]; [14]): 0.806 µM | Kd (HLA-B*35:01; [14]): 0.0071 µM
Sequence: FAGDLYRMY

Sequence: IVKQGRDAL
Kd (HLA-A*30:01): ≥ 20 µM | Kd (HLA-B*08:01 [2]): 1.46 µM | Kd (HLA-A*01:01; [15]): ≥ 20 µM | Kd (HLA-B*18:01): ≥ 20 µM | Kd (HLA-A*02:01 [3]): ≥ 20 µM | Kd (HLA-A*03:01): ≥ 20 µM | Kd (HLA-B*46:01; [15]): ≥ 20 µM | Kd (HLA-B*40:01; [15]): ≥ 20 µM | Kd (HLA-A*26:01): ≥ 20 µM | Kd (HLA-A*11:01 [4]): ≥ 20 µM | Kd (HLA-B*15:01 [5]): 1.34 µM | Kd (HLA-B*57:01 [6]): ≥ 20 µM | Kd (HLA-B*58:01; [15]): ≥ 20 µM | Kd (HLA-B*15:17 [7]): ≥ 20 µM | Kd (HLA-B*27:05; [15]): ≥ 20 µM | Kd (HLA-A*69:01; [15]): ≥ 20 µM | Kd (HLA-B*51:01): ≥ 20 µM | Kd (HLA-A*31:01; [15]): ≥ 20 µM | Kd (HLA-B*39:01): ≥ 20 µM | Kd (HLA-B*38:01; source organism: Vibrio cholerae V52): ≥ 20 µM | Kd (HLA-B*48:01; [15]): ≥ 20 µM | Kd (HLA-B*07:02): 0.226 µM

IC50 (HLA-A*02:01 [8]): 21 µM
Sequence: SLSEKTVLL

IC50 (HLA-A*02:01 [8]): 10.5 µM | Kd (HLA-C*14:02): 0.0772 µM | Kd (HLA-B*83:01): ≥ 5 µM | Kd (HLA-B*15:42): ≥ 5 µM | Kd (HLA-B*45:06): ≥ 5 µM | Kd (HLA-C*12:03; source organism: Gorilla gorilla): 2.28 µM
Sequence: VMAPRTLVL

Sequence: VTFFCVMTY
Kd (HLA-A*02:01 [9]): 2.1 µM | Kd (HLA-A*02:03): ≥ 20 µM | Kd (HLA-A*11:01 [10]): 0.225 µM | Kd (HLA-B*15:01 [1]; [16]): 2.23 µM | Kd (HLA-B*57:01 [11]): 1.75 µM | Kd (HLA-B*15:17 [12]): 0.0151 µM | Kd (HLA-A*02:06): 0.478 µM | Kd (HLA-B*15:09): ≥ 20 µM | Kd (HLA-A*01:01; [17]): 0.993 µM | Kd (HLA-A*26:02): 1.78 µM | Kd (HLA-B*46:01; [17]): ≥ 20 µM | Kd (HLA-B*40:01; [17]): ≥ 20 µM | Kd (HLA-B*08:02): ≥ 20 µM | Kd (HLA-B*58:01; [16]): 0.111 µM | Kd (HLA-B*27:05; [17]): ≥ 20 µM | Kd (HLA-A*69:01; [17]): ≥ 20 µM | Kd (HLA-B*08:01 [13]): ≥ 20 µM | Kd (HLA-A*31:01; [17]): ≥ 20 µM | Kd (HLA-C*12:03; [16]): 0.043 µM | Kd (HLA-A*26:03): ≥ 20 µM | Kd (HLA-B*38:01; [16]): ≥ 20 µM | Kd (HLA-B*48:01; [17]): ≥ 20 µM

Sequence: WCMQHLPSY
Kd (HLA-B*15:01 [1]; [18]): 0.102 µM | Kd (HLA-B*35:01; [18]): 0.004 µM
